T1: human OX40 on cells (human, UniProt P43489 29-277)
T1 construct: also called CD134; OX40+ Cells
T1 sequence: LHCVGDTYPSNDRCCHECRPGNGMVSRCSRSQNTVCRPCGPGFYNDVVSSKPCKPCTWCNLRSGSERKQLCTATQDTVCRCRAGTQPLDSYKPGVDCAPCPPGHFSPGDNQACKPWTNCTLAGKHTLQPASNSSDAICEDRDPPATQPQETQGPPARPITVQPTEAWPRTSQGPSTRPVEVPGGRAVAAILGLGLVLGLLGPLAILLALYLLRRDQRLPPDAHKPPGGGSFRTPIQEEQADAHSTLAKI

T2: cynomolgus TnC with C-terminal Avi- and His-tags (cynomolgus, biotinylated at the C-terminal Avi-tag)
T2 construct: also called cynoTnC; cyno TnC
T2 chain: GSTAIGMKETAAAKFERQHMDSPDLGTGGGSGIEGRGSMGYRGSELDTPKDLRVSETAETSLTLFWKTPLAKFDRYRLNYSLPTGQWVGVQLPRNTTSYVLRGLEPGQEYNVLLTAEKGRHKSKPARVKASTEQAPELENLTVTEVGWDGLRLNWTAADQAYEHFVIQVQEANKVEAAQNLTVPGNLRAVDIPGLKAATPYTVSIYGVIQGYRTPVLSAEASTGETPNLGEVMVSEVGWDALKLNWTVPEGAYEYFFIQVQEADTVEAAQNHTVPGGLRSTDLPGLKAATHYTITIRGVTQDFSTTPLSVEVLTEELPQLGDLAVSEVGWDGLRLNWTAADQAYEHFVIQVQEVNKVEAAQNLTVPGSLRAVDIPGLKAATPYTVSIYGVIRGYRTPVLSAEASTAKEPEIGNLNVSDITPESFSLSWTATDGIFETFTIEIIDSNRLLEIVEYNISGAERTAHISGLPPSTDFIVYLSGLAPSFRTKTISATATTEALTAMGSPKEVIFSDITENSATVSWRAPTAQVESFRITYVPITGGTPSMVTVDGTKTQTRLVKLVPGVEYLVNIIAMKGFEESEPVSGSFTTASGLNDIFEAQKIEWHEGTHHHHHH

T3: mouse TnC with C-terminal Avi- and His-tags (mouse, biotinylated at the C-terminal Avi-tag)
T3 construct: the N-terminal fn5 and C-terminal fn6 parts look like the human ones; also called muTnC; murine TnC
T3 chain: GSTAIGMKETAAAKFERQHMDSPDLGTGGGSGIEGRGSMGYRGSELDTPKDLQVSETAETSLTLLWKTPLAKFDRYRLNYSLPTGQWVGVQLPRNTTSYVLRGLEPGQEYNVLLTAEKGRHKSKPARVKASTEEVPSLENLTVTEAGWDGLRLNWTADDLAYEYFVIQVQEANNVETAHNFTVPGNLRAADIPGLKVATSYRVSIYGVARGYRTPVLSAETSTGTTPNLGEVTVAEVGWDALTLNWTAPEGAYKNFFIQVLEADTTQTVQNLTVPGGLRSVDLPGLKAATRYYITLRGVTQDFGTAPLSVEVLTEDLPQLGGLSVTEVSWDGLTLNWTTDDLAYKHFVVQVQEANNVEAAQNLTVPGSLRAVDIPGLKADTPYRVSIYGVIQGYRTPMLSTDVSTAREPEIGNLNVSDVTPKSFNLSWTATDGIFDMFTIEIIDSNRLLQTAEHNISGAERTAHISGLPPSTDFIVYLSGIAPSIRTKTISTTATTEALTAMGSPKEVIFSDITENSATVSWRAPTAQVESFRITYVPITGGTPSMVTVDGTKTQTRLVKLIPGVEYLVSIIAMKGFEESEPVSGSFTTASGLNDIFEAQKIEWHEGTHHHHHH

T4: human TnC with C-terminal Avi- and His-tags (human, UniProt P24821 984-1798, biotinylated at the C-terminal Avi-tag)
T4 construct: also called huTnC; biotinylated human TnC
T4 sequence: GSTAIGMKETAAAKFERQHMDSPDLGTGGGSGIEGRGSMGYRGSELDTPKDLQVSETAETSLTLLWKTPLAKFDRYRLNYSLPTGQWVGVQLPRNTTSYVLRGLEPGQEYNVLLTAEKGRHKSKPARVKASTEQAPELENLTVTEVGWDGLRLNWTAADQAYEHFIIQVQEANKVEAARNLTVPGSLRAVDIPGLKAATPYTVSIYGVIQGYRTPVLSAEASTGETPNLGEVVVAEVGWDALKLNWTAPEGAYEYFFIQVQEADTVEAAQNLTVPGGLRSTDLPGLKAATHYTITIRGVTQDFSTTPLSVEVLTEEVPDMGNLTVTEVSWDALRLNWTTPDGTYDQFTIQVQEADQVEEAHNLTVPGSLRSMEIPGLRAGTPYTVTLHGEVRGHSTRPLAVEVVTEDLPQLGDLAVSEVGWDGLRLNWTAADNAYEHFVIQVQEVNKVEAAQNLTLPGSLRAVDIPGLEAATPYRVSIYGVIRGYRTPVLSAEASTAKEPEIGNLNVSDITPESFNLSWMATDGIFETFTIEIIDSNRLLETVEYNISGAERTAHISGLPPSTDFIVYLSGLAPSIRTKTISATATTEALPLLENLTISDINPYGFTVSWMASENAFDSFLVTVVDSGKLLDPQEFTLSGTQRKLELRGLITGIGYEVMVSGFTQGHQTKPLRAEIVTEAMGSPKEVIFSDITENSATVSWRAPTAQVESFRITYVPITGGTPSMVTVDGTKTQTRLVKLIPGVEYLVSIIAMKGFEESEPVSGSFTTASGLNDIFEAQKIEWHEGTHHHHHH


How the values were obtained:
[1] = molecular target: T1, human OX40 on cells; test: flow cytometry on OX40+ cells (activated human PBMC)
Procedure: (§1) For labeling, cells were harvested, washed with pre-warmed (37° C.) DPBS and adjusted to a cell density of 1×10⁷ cells/mL in DPBS. eFluor670 cell proliferation dye (eBioscience, Cat.-No. 65-0840-85) was added to the suspension of naïve human PBMC at a final concentration of […] and a final cell density of 0.5×10⁷ cells/mL in DPBS. Cells were then incubated for 10 min at room temperature in the dark. To stop the labeling reaction, 4 mL heat inactivated FBS was added and cells were washed three times with T cell medium. A 2:1 mixture of 1×10⁵ resting eFluor670 labeled human PBMC and 0.5×10⁵ unlabeled activated human PBMC were then added to each well of round-bottomed suspension cell 96-well plates (Greiner bio-one, cellstar, Cat. No. 650185).
(§2) Cells were stained for 120 minutes at 4° C. in the dark in 50 μL/well 4° C. FACS buffer containing different amounts of the indicated antigen binding molecules. After three washes with 4° C. FACS buffer, cells were stained for 45 minutes at 4° C. in the dark in 25 μL/well 4° C. FACS buffer containing a mixture of fluorescently labeled anti-human CD4 (clone RPA-T4, mouse IgG1 k, BioLegend, Cat.-No. 300532), anti-human CD8 (clone RPa-T8, mouse IgGlk, BioLegend, Cat.-No. 3010441) and Fluorescein isothiocyanate (FITC)-conjugated AffiniPure anti-human IgG Fcγ-fragment-specific goat IgG F(ab′)₂ fragment (Jackson ImmunoResearch, Cat.-No. 109-096-098).
Cells were then resuspended in […] FACS-buffer containing 0.2 μg/mL DAPI (Santa Cruz Biotec, Cat. No. Sc-3598) and acquired the same day using 5-laser LSR-Fortessa (BD Bioscience with DIVA software).

[2] = molecular target: T5, human OX40 Fc(kih), monomeric Fc-linked human OX40 antigen ECD (human, UniProt P0DOX5 223-449 = IgG part); test: SPR (Biacore T200, 25 °C): bispecific held on immobilised human TnC; human OX40 Fc(kih) at 250 nM injected for 90 s as analyte 2
T5 construct: Heterodimer of one OX40 ECD (aa 29-214)-AcTEV-Fc knob-Avi chain and one Fc hole chain; Biotinylated at the Avi tag for phage selection and ELISA; also called recombinant OX40 Fc (kih) receptor; biotinylated human OX40
Procedure: (§3) All SPR experiments were performed on a Biacore T200 at 25° C. with HBS-EP as running buffer (0.01 M HEPES pH 7.4, 0.15 M NaCl, 3 mM EDTA, 0.005% Surfactant P20, Biacore, Freiburg/Germany).
Biotinylated human TnC was directly coupled to a flow cell of a streptavidin (SA) sensor chip. Immobilization levels up to 1000 resonance units (RU) were used.
Bulk refractive index differences were corrected for by subtracting the response obtained in a reference flow cell, where no protein was immobilized.

[3] = molecular target: T2, cynomolgus TnC with C-terminal Avi- and …; test: SPR Biacore T200, biotinylated TnC on SA chip, bispecific as analyte, 1:1 fit, apparent KD (bivalent binding)
Procedure: as §3, with “The capacity of the bispecific constructs to bind human, murine and cynomolgus TnC was analysed by surface plasmon resonance (SPR). All” for “All”
(§4) Biotinylated human, murine or cynomolgus TnC molecules were immobilised on a SA chip to reach an immobilization level of 10 resonance units (RU).
(§5) Following immobilisation, the bispecific molecules or control molecules were immediately passed over the chip surface at concentrations ranging from 0.05-50 nM, at a flow rate of 30 μL/minute for 120 seconds and a dissociation phase of 180 seconds. The surface was regenerated using 10 mM glycine pH2.1. Bulk refractive index differences were corrected for by subtracting the response obtained in a reference flow cell, where no TnC was immobilized. Affinity/Avidity was determined under these experimental conditions using the Langmuir 1:1 curve fitting. For bivalent binding the same 1:1 fitting was used leading to an apparent KD value.

[4] = molecular target: T3, mouse TnC with C-terminal Avi- and …; test: as above
Procedure: as §3, with “The capacity of the bispecific constructs to bind human, murine and cynomolgus TnC was analysed by surface plasmon resonance (SPR). All” for “All”
as §4, §5

[5] = molecular target: T1, human OX40 on cells; test: flow cytometry on activated human PBMC, gated on CD8+ T cells; FITC anti-human IgG secondary; MFI baseline corrected
Procedure: as §1
as §2, with “109-096-098). […]” for “109-096-098).”

[6] = molecular target: T4, human TnC with C-terminal Avi- and …; test: SPR Biacore T200, biotinylated TnC on SA chip, bispecific as analyte, 1:1 fit, apparent KD (bivalent binding)
Procedure: as §3, with “The capacity of the bispecific constructs to bind human, murine and cynomolgus TnC was analysed by surface plasmon resonance (SPR). All” for “All”
as §4, §5

Row | EC50 [1] [nM] | binding result [2] | Kd [3] [nM] | Kd [4] [nM] | EC50 (read off the curve) [5] [nM] | Kd [6] [nM] | Binder
1 | 0.08 | binds | 0.4 | 0.65 | ~0.1 |  | 49B4/TnC 18D4 P329GLALA 4 + 2 (ID8035) (bispecific antibody, human IgG1, kappa, L234A L235A, huIgG1 P329G LALA; also called 49B4/18D4 4 + 2; 4 + 2 TnC (18D4)) heavy: not shown light 1: DIQMTQSPSTLSASVGDRVTITCRASQSISSWLAWYQQKPGKAPKLLIYDASSLESGVPSRFSGSGSGTEFTLTISSLQPDDFATYYCQQYSSQPYTFGQGTKVEIKRTVAAPSVFIFPPSDRKLKSGTASVVCLLNNFYPREAKVQWKVDNALQSGNSQESVTEQDSKDSTYSLSSTLTLSKADYEKHKVYACEVTHQGLSSPVTKSFNRGEC light 2: QVQLVQSGAEVKKPGSSVKVSCKASGGTFSSYAISWVRQAPGQGLEWMGGIIPIFGTANYAQKFQGRVTITADKSTSTAYMELSSLRSEDTAVYYCAKGNFYGGLDYWGQGTTVTVSSASVAAPSVFIFPPSDEQLKSGTASVVCLLNNFYPREAKVQWKVDNALQSGNSQESVTEQDSKDSTYSLSSTLTLSKADYEKHKVYACEVTHQGLSSPVTKSFNRGEC
2 | 6.59 | binds | 0.28 | 0.3 |  |  | 49B4/TnC 18D4 P329GLALA 2 + 2 (ID7216) (bispecific antibody, human IgG1, kappa, L234A L235A, huIgG1 P329G LALA; 49B4 VHCH1-Fc-(G4S)4-18D4 VHCL heavy chain, 49B4 VLCL light chain, 18D4 VLCH1 crossed light chain; also called 2 + 2 (49B4/18D4); 49B4/18D4 2 + 2) heavy: not shown light 1: DIQMTQSPSTLSASVGDRVTITCRASQSISSWLAWYQQKPGKAPKLLIYDASSLESGVPSRFSGSGSGTEFTLTISSLQPDDFATYYCQQYSSQPYTFGQGTKVEIKRTVAAPSVFIFPPSDEQLKSGTASVVCLLNNFYPREAKVQWKVDNALQSGNSQESVTEQDSKDSTYSLSSTLTLSKADYEKHKVYACEVTHQGLSSPVTKSFNRGEC light 2: DIQMTQSPSTLSASVGDRVTITCRASQSISSWLAWYQQKPGKAPKLLIYDASSLESGVPSRFSGSGSGTEFTLTISSLQPDDFATYYCQQNKKFPSGTFGQGTKVEIKSSASTKGPSVFPLAPSSKSTSGGTAALGCLVKDYFPEPVTVSWNSGALTSGVHTFPAVLQSSGLYSLSSVVTVPSSSLGTQTYICNVNHKPSNTKVDKKVEPKSCD
3 | 4.22 | binds |  |  |  | 5.85 | 49B4/TnC 11C7 P329GLALA 2 + 2 (ID7215) (bispecific antibody, human IgG1, kappa, L234A L235A, huIgG1 P329G LALA; 49B4 VHCH1-Fc-(G4S)4-11C7 VHCL heavy chain, 49B4 VLCL light chain, 11C7 VLCH1 crossed light chain; also called 2 + 2 (49B4/11C7); 49B4/11C7 2 + 2) heavy: not shown light 1: DIQMTQSPSTLSASVGDRVTITCRASQSISSWLAWYQQKPGKAPKLLIYDASSLESGVPSRFSGSGSGTEFTLTISSLQPDDFATYYCQQYSSQPYTFGQGTKVEIKRTVAAPSVFIFPPSDEQLKSGTASVVCLLNNFYPREAKVQWKVDNALQSGNSQESVTEQDSKDSTYSLSSTLTLSKADYEKHKVYACEVTHQGLSSPVTKSFNRGEC light 2: SSELTQDPAVSVALGQTVRVTCQGDSLRSYYASWYQQKPGQAPVLVIYGKNNRPSGIPDRFSGSSSGNTASLTITGAQAEDEADYYCNSINSTRNEVFGGGTKLTVLSSASTKGPSVFPLAPSSKSTSGGTAALGCLVKDYFPEPVTVSWNSGALTSGVHTFPAVLQSSGLYSLSSVVTVPSSSLGTQTYICNVNHKPSNTKVDKKVEPKSCD

Reference: patent publication US20200277392A1 (Hoffmann-La Roche, published 2020)
